Values of other authors in patent US11535641B2, “Method for preparing GOS having reduced allergenicity” (FRIESLANDCAMPINA NEDERLAND B.V., priority 2017, dated 2022).
Read-outs that look alike come from different tables or passages of the source.

Tests used:
[1] = for Ratio in GOS (%) DP2*: lactose not included; for Amount of GOS (content of GOS in total sugar): 24 hours, 53% lactose, 1 U per g lactose
[2] = GOS yield about 50% (65° C., 24 hours)
[3] = acetate buffer (pH 6.0)
[4] = comparison of enzymes, GOS yield about 50%
[5] = comparison of enzymes, typical results when GOS yield about 50% (65° C., 24 hours)

B1: C. terrestris M6 (mutant strain enzyme 3): β-galactosidase with N-terminal 141 residues of wild-type deleted, SEQ ID NO: 4 (protein, listed as Cryptococcus terrestris)
chain: ATGPVGGQGTPAVNFTDYSSSSLEQFWNDWVGEVEEPPFAYVPEPPNPYPLPNAPPPIYPEYYTKRPKDILPDYKFPKDFLFGWATAAQQWEGAVKADGKGPSIWDWASRFPGFIADNTTSDVGDLGYYLYKEDLARIAALGANVYSFSMFWTRIFPFGKADSPVNQAGIDFYHDLIDYSWSLGIEPVVTLFHWDTPLALQLEYGGFASERIIDDYVNYAETVFKAYNGSVHKWVTFNEPVVFCSQMAAPVNTTLPPNLNSTIYPYTCSYHLVLAHAKTVKRFRELNIQGQIAFKSDNFVGIPWREGNQEDIDAVERHQAYQIGIFAEPIYNTGDWPDIVKNDLSPDILPRFTDDEIAMIKCTADFFPIDGYRDGYVQAVPGGVEACVANISNPLWPACNQVNFYDSTPAGWAIGTFGNWPTTPWLQNTWQFVRPFLADLAKRYPTEGGIYLSEFGFSEPFENDKTFIYQITQDSGRTAYFNSYLGEVLKGIVEDGIPIKGVFGWSMVDNFEWNSGLSTRFGVQYVDYNSPTRQRTFKRSALEMSEFWNAHRCSA
[1]; [4]
  Ratio in GOS (%) DP2*: 25.8%
[1]; [5]
  Ratio in GOS (%) DP3: 54.2%
  Ratio in GOS (%) ≥ DP4: 19.9%
[1]; reaction temperature 50° C.
  Ratio in GOS (%) DP3: 68.9%
  Ratio in GOS (%) ≥ DP4: 6.4%
  Amount of GOS (content of GOS in total sugar): 46.9%
  Ratio in GOS (%) DP2*: 24.7%
[1]; reaction temperature 60° C.
  Ratio in GOS (%) DP3: 58.2%
  Ratio in GOS (%) ≥ DP4: 16.1%
  Amount of GOS (content of GOS in total sugar): 52.1%
  Ratio in GOS (%) DP2*: 25.8%
[1]; reaction temperature 65° C.
  Ratio in GOS (%) DP3: 53.4%
  Ratio in GOS (%) ≥ DP4: 20.9%
  Amount of GOS (content of GOS in total sugar): 53.2%
  Ratio in GOS (%) DP2*: 26.0%
[1]; reaction temperature 70° C.
  Ratio in GOS (%) DP3: 49.2%
  Ratio in GOS (%) ≥ DP4: 24.5%
  Amount of GOS (content of GOS in total sugar): 53.9%
  Ratio in GOS (%) DP2*: 26.3%
[2]
  Ratio in DP3 (%) β1-2, β1-3: 22.1%
  Ratio in DP3 (%) β1-4: 75.2%
  Ratio in DP3 (%) β1-6: 2.7%
[3]
  optimum temperature: 70 °C

B2: WT strain enzyme: β-galactosidase from Cryptococcus terrestris strain MM13-F2171, SEQ ID NO: 1 (protein, listed as Cryptococcus terrestris)
chain: MIPASALLAAVPLLAQQVSAGILRRQNAAGSDSAAPDSIADASTGVVSSIATEAVSSGATGLVASVAMSFASSMATPTATVTGLSSETGAPSNTPMASASGSVPTTTSAVGSGDFDWVQTDGLPTITTTLATTNQDAITPTATGPVGGQGTPAVNFTDYSSSSLEQFWNDWVGEVEEPPFAYVPEPPNPYPLPNAPPPIYPEYYTKRPKDILPDYKFPKDFLFGWATAAQQWEGAVKADGKGPSIWDWASRFPGFIADNTTSDVGDLGYYLYKEDLARIAALGANVYSFSMFWTRIFPFGKADSPVNQAGIDFYHDLIDYSWSLGIEPVVTLFHWDTPLALQLEYGGFASERIIDDYVNYAETVFKAYNGSVHKWVTFNEPVVFCSQMAAPVNTTLPPNLNSTIYPYTCSYHLVLAHAKTVKRFRELNIQGQIAFKSDNFVGIPWREGNQEDIDAVERHQAYQIGIFAEPIYNTGDWPDIVKNDLSPDILPRFTDDEIAMIKCTADFFPIDGYRDGYVQAVPGGVEACVANISNPLWPACNQVNFYDSTPAGWAIGTFGNWPTTPWLQNTWQFVRPFLADLAKRYPTEGGIYLSEFGFSEPFENDKTFIYQITQDSGRTAYFNSYLGEVLKGIVEDGIPIKGVFGWSMVDNFEWNSGLSTRFGVQYVDYNSPTRQRTFKRSALEMSEFWNAHRCSA
[1]; [4]
  Ratio in GOS (%) DP2*: 25.8%
[1]; [5]
  Ratio in GOS (%) DP3: 57.5%
  Ratio in GOS (%) ≥ DP4: 16.7%
[1]; reaction temperature 65° C.
  Ratio in GOS (%) DP3: 51.8%
  Ratio in GOS (%) ≥ DP4: 22.1%
  Amount of GOS (content of GOS in total sugar): 53.4%
  Ratio in GOS (%) DP2*: 26.1%
[1]; reaction temperature 70° C.
  Ratio in GOS (%) DP3: 47.4%
  Ratio in GOS (%) ≥ DP4: 25.8%
  Amount of GOS (content of GOS in total sugar): 54.2%
  Ratio in GOS (%) DP2*: 26.8%
[2]
  Ratio in DP3 (%) β1-2, β1-3: 22.1%
  Ratio in DP3 (%) β1-4: 76.3%
  Ratio in DP3 (%) β1-6: 1.5%
[3]
  optimum temperature: 70 °C
[3]; within the stable temperature range, 30 minutes
  enzyme activity retained: ≥ 80%

B3: C. terrestris M2 (mutant strain enzyme 1): β-galactosidase with N-terminal 130 residues of wild-type deleted, SEQ ID NO: 2 (protein, listed as Cryptococcus terrestris)
chain: ATTNQDAITPTATGPVGGQGTPAVNFTDYSSSSLEQFWNDWVGEVEEPPFAYVPEPPNPYPLPNAPPPIYPEYYTKRPKDILPDYKFPKDFLFGWATAAQQWEGAVKADGKGPSIWDWASRFPGFIADNTTSDVGDLGYYLYKEDLARIAALGANVYSFSMFWTRIFPFGKADSPVNQAGIDFYHDLIDYSWSLGIEPVVTLFHWDTPLALQLEYGGFASERIIDDYVNYAETVFKAYNGSVHKWVTFNEPVVFCSQMAAPVNTTLPPNLNSTIYPYTCSYHLVLAHAKTVKRFRELNIQGQIAFKSDNFVGIPWREGNQEDIDAVERHQAYQIGIFAEPIYNTGDWPDIVKNDLSPDILPRFTDDEIAMIKCTADFFPIDGYRDGYVQAVPGGVEACVANISNPLWPACNQVNFYDSTPAGWAIGTFGNWPTTPWLQNTWQFVRPFLADLAKRYPTEGGIYLSEFGFSEPFENDKTFIYQITQDSGRTAYFNSYLGEVLKGIVEDGIPIKGVFGWSMVDNFEWNSGLSTRFGVQYVDYNSPTRQRTFKRSALEMSEFWNAHRCSA
[1]; [4]
  Ratio in GOS (%) DP2*: 25.3%
[1]; [5]
  Ratio in GOS (%) DP3: 60.5%
  Ratio in GOS (%) ≥ DP4: 14.2%
[2]
  Ratio in DP3 (%) β1-2, β1-3: 20.7%
  Ratio in DP3 (%) β1-4: 79.0%
  Ratio in DP3 (%) β1-6: 0.4%
[3]
  optimum temperature: 70 °C
